Measurements taken from the supplement of paper PMC9112550, “Optimization of the antimicrobial peptide Bac7 by deep mutational scanning” (BMC Biology, 2022).

System: Escherichia coli TOP10
Assay: shrunken log2 fold change of peptide-encoding DNA abundance (4.5 h post-induction vs induction); higher = less antimicrobial activity (less host growth inhibition)
Conditions: time post-induction: 4.5 h; library: site-saturation at positions 5, 18, 19, 20
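Also: peptides expressed intracellularly from a pBAD plasmid library in pooled LB shake-flask culture, induced with 0.3% L-arabinose, DNA abundance read by NGS, three biological replicates, DESeq2 with apeglm shrinkage.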

Sequence | shrunken log2 fold change
RRIRSRPPRLPRPRPRPRICPRP | -0.191
RRIRRRPPRLPRPRPRPWPRPRP | 0.349
RRIRARPPRLPRPRPRPCCKPRP | -0.12
RRIRHRPPRLPRPRPRPLKHPRP | -0.869
RRIRCRPPRLPRPRPRPYFMPRP | -0.91
RRIRSRPPRLPRPRPRPYNGPRP | -0.0342
RRIRKRPPRLPRPRPRPWECPRP | 0.033
RRIRQRPPRLPRPRPRPQGQPRP | 0.254
RRIRNRPPRLPRPRPRPQNYPRP | -0.846
RRIRVRPPRLPRPRPRPPPPPRP | 1
RRIRLRPPRLPRPRPRPSRSPRP | -0.0638
RRIRTRPPRLPRPRPRPPQCPRP | 0.0145
RRIRGRPPRLPRPRPRPATFPRP | 0.326
RRIRSRPPRLPRPRPRPHDIPRP | -0.0108
RRIRDRPPRLPRPRPRPDSKPRP | 0.0365
RRIRCRPPRLPRPRPRPEWWPRP | -0.00726
RRIRKRPPRLPRPRPRPDALPRP | 0.132
RRIRTRPPRLPRPRPRPVLQPRP | 4.38
RRIRTRPPRLPRPRPRPFAGPRP | -0.0338
RRIRYRPPRLPRPRPRPSCAPRP | -0.921
RRIRARPPRLPRPRPRPSWAPRP | 0.106
RRIRRRPPRLPRPRPRPDSPPRP | 0.28
RRIRRRPPRLPRPRPRPPNVPRP | 0.115
RRIRERPPRLPRPRPRPNFYPRP | -0.261
RRIRFRPPRLPRPRPRPHWIPRP | -0.151

Sequence | shrunken log2 fold change
RRIRNRPPRLPRPRPRPQRCPRP | 0.0227
RRIRLRPPRLPRPRPRPGRNPRP | -0.0488
RRIRVRPPRLPRPRPRPSAEPRP | 0.299
RRIRTRPPRLPRPRPRPTVTPRP | 0.0797
RRIRRRPPRLPRPRPRPYRYPRP | 0.0464
RRIRFRPPRLPRPRPRPLFYPRP | -0.0429
RRIRLRPPRLPRPRPRPFMKPRP | -0.222
RRIRIRPPRLPRPRPRPAIYPRP | -0.00708
RRIRLRPPRLPRPRPRPGDAPRP | -0.127
RRIRARPPRLPRPRPRPHPQPRP | 0.45
RRIRPRPPRLPRPRPRPFDCPRP | -0.52
RRIRPRPPRLPRPRPRPMFHPRP | -0.289
RRIRTRPPRLPRPRPRPGNKPRP | -0.0505
RRIRNRPPRLPRPRPRPDRWPRP | 0.00119
RRIRKRPPRLPRPRPRPGPWPRP | 0.63
RRIRHRPPRLPRPRPRPRVDPRP | 0.0681
RRIRVRPPRLPRPRPRPGQKPRP | 0.00253
RRIRERPPRLPRPRPRPETRPRP | -0.0227
RRIRNRPPRLPRPRPRPRKNPRP | 0.161
RRIRGRPPRLPRPRPRPNNWPRP | 0.121
RRIRRRPPRLPRPRPRPSMAPRP | -0.142
RRIRVRPPRLPRPRPRPLYMPRP | -0.128
RRIRCRPPRLPRPRPRPWKCPRP | -0.0193
RRIRLRPPRLPRPRPRPCFAPRP | 0.179
RRIRCRPPRLPRPRPRPNVTPRP | 0.632

Sequence | shrunken log2 fold change
RRIRRRPPRLPRPRPRPSCKPRP | -0.398
RRIRCRPPRLPRPRPRPGKDPRP | 0.124
RRIRQRPPRLPRPRPRPWLNPRP | -0.0662
RRIRQRPPRLPRPRPRPQQTPRP | 0.178
RRIRERPPRLPRPRPRPDGFPRP | -0.134
RRIRIRPPRLPRPRPRPNQSPRP | -0.812
RRIRKRPPRLPRPRPRPFEKPRP | -0.045
RRIRWRPPRLPRPRPRPCQLPRP | -0.0812
RRIRMRPPRLPRPRPRPHNYPRP | -0.0828
RRIRIRPPRLPRPRPRPIRNPRP | -0.236
RRIRHRPPRLPRPRPRPCRHPRP | -0.204
RRIRCRPPRLPRPRPRPCPCPRP | -1.35
RRIRRRPPRLPRPRPRPCLYPRP | -0.117
RRIRFRPPRLPRPRPRPDKCPRP | -0.18
RRIRWRPPRLPRPRPRPFMVPRP | -0.371
RRIRFRPPRLPRPRPRPPIFPRP | -0.0711
RRIRTRPPRLPRPRPRPVPWPRP | 0.95
RRIRPRPPRLPRPRPRPPLDPRP | 0.517
RRIRHRPPRLPRPRPRPIIMPRP | -0.029
RRIRHRPPRLPRPRPRPPNFPRP | -0.00427
RRIRERPPRLPRPRPRPEFTPRP | 0.0663
RRIRQRPPRLPRPRPRPRFNPRP | -0.244
RRIRMRPPRLPRPRPRPRGEPRP | 0.0602
RRIRRRPPRLPRPRPRPCPSPRP | 0.0616
RRIRARPPRLPRPRPRPGYSPRP | -0.35

Sequence | shrunken log2 fold change
RRIRPRPPRLPRPRPRPYGMPRP | -0.155
RRIRLRPPRLPRPRPRPRDWPRP | 0.847
RRIRVRPPRLPRPRPRPTSRPRP | -0.139
RRIRDRPPRLPRPRPRPYCHPRP | -0.121
RRIRGRPPRLPRPRPRPRHYPRP | 0.173
RRIRTRPPRLPRPRPRPIHIPRP | 0.0274
RRIRARPPRLPRPRPRPFEVPRP | 0.455
RRIRRRPPRLPRPRPRPQAAPRP | 0.0105
RRIRYRPPRLPRPRPRPPGNPRP | -0.0342
RRIRIRPPRLPRPRPRPQWSPRP | -0.618
RRIRRRPPRLPRPRPRPIQGPRP | -0.00136
RRIRLRPPRLPRPRPRPIPMPRP | 0.0494
RRIRIRPPRLPRPRPRPGQAPRP | -0.0154
RRIRTRPPRLPRPRPRPPTAPRP | -0.0521
RRIRCRPPRLPRPRPRPYVGPRP | -0.163
RRIRTRPPRLPRPRPRPWHDPRP | -0.0708
RRIRNRPPRLPRPRPRPSCKPRP | 0.065
RRIRPRPPRLPRPRPRPKDKPRP | -0.125
RRIRYRPPRLPRPRPRPYMCPRP | -0.0233
RRIRTRPPRLPRPRPRPGNMPRP | -0.0393
RRIRQRPPRLPRPRPRPEAQPRP | 0.285
RRIRDRPPRLPRPRPRPKMMPRP | -0.154
RRIRMRPPRLPRPRPRPMSKPRP | 0.0165
RRIRDRPPRLPRPRPRPPTCPRP | 0.0486
RRIRMRPPRLPRPRPRPPQKPRP | 0.173

Sequence | shrunken log2 fold change
RRIRQRPPRLPRPRPRPFIYPRP | -0.372
RRIRIRPPRLPRPRPRPGPIPRP | -0.329
RRIRPRPPRLPRPRPRPQSPPRP | 0.0713
RRIRCRPPRLPRPRPRPDRAPRP | 0.0901
RRIRNRPPRLPRPRPRPHVMPRP | -0.503
RRIRTRPPRLPRPRPRPWIVPRP | -0.0452
RRIRWRPPRLPRPRPRPKMDPRP | 0.135
RRIRHRPPRLPRPRPRPPIRPRP | 0.309
RRIRHRPPRLPRPRPRPKLWPRP | 0.392
RRIRRRPPRLPRPRPRPQFSPRP | -0.326
RRIRGRPPRLPRPRPRPSGAPRP | 0.688
RRIRNRPPRLPRPRPRPKPVPRP | 0.24
RRIRFRPPRLPRPRPRPPSMPRP | 0.252
RRIRCRPPRLPRPRPRPFFEPRP | -0.0214
RRIRIRPPRLPRPRPRPWVYPRP | -0.341
RRIRWRPPRLPRPRPRPLNCPRP | -0.0452
RRIRTRPPRLPRPRPRPAVNPRP | 0.000461
RRIRKRPPRLPRPRPRPERDPRP | 0.621
RRIRIRPPRLPRPRPRPQLYPRP | -0.303
RRIRKRPPRLPRPRPRPMKPPRP | 0.145
RRIRHRPPRLPRPRPRPFGFPRP | -0.0586
RRIRGRPPRLPRPRPRPIGLPRP | 0.19
RRIRQRPPRLPRPRPRPGYGPRP | -0.131
RRIRERPPRLPRPRPRPYETPRP | 0.0614
RRIRERPPRLPRPRPRPHRIPRP | -0.229

Sequence | shrunken log2 fold change
RRIRRRPPRLPRPRPRPPFGPRP | 0.453
RRIRFRPPRLPRPRPRPNTLPRP | -0.239
RRIRVRPPRLPRPRPRPDTVPRP | -0.186
RRIRMRPPRLPRPRPRPDFNPRP | 0.0763
RRIRYRPPRLPRPRPRPPSWPRP | 0.133
RRIRVRPPRLPRPRPRPEFWPRP | 0.439
RRIRKRPPRLPRPRPRPEVPPRP | 0.539
RRIRSRPPRLPRPRPRPHHQPRP | -0.61
RRIRDRPPRLPRPRPRPSFCPRP | -0.0945
RRIRPRPPRLPRPRPRPMGMPRP | 0.0285
RRIRDRPPRLPRPRPRPQSGPRP | -0.136
RRIRKRPPRLPRPRPRPIASPRP | 0.0246
RRIRGRPPRLPRPRPRPYVKPRP | -0.417
RRIRTRPPRLPRPRPRPQEGPRP | -0.0173
RRIRQRPPRLPRPRPRPDGNPRP | -0.26
RRIRIRPPRLPRPRPRPSGFPRP | -0.175
RRIRIRPPRLPRPRPRPHIAPRP | -0.957
RRIRQRPPRLPRPRPRPKANPRP | 0.0666
RRIRWRPPRLPRPRPRPDYLPRP | -0.0223
RRIRDRPPRLPRPRPRPYSQPRP | -0.0305
RRIRMRPPRLPRPRPRPTFGPRP | 0.374
RRIRTRPPRLPRPRPRPFLMPRP | -0.378
RRIRERPPRLPRPRPRPKRKPRP | 0.25
RRIRFRPPRLPRPRPRPRPGPRP | 0.837
RRIRWRPPRLPRPRPRPYNQPRP | -0.807
